According to patent US20170285043A1 (WHITEHEAD INSTITUTE FOR BIOMEDICAL RESEARCH, published 2017):

B1: FLAG-Sestrin3 (other)
chain: MNRGGGSPSAAANYLLCTNCRKVLRKDKRIRVSQPLTRGPSAFIPEKEVVQANTVDERTNFLVEEYSTSGRLDNITQVMSLHTQYLESFLRSQFYMLRMDGPLPLPYRHYIAIMAAARHQCSYLINMHVDEFLKTGGIAEWLNGLEYVPQRLKNLNEINKLLAHRPWLITKEHIQKLVKTGENNWSLPELVHAVVLLAHYHALASFVFGSGINPERDPEISNGFRLISVNNFCVCDLANDNNIENASLSGSNFGIVDSLSELEALMERMKRLQEEREDEEASQEEMSTRFEKEKKESLFVVSGDTFHSFPHSDFEDDMIITSDVSRYIEDPGFGYEDFARRGEEHLPTFRAQDYTWENHGFSLVNRLYSDIGHLLDEKFRMVYNLTYNTMATHEDVDTTMLRRALFNYVHCMFGIRYDDYDYGEVNQLLERSLKVYIKTVTCYPERTTKRMYDSYWRQFKHSEKVHVNLLLMEARMQAELLYALRAITRHLT
notes: also called recombinant, FLAG-tagged Sestrin3; not shown: FLAG tag
B2: FLAG-Sestrin1 (other)
chain: MAEGENEVRWDGLCSRDSTTRETALENIRQTILRKTEYLRSVKETPHRPSDGLSNTESSDGLNKLLAHLLMLSKRCPFKDVREKSEFILKSIQELGIRIPRPLGQGPSRFIPEKEILQVGSEDAQMHALFADSFAALGRLDNITLVMVFHPQYLESFLKTQHYLLQMDGPLPLHYRHYIGIMAAARHQCSYLVNLHVNDFLHVGGDPKWLNGLENAPQKLQNLGELNKVLAHRPWLITKEHIEGLLKAEEHSWSLAELVHAVVLLTHYHSLASFTFGCGISPEIHCDGGHTFRPPSVSNYCICDITNGNHSVDEMPVNSAENVSVSDSFFEVEALMEKMRQLQECRDEEEASQEEMASRFEIEKRESMFVFSSDDEEVTPARAVSRHFEDTSYGYKDFSRHGMHVPTFRVQDYCWEDHGYSLVNRLYPDVGQLIDEKFHIAYNLTYNTMAMHKDVDTSMLRRAIWNYIHCMFGIRYDDYDYGEINQLLDRSFKVYIKTVVCTPEKVTKRMYDSFWRQFKHSEKVHVNLLLIEARMQAELLYALRAITRYMT
notes: also called recombinant, FLAG-tagged Sestrin1; not shown: FLAG tag
B3: FLAG-Sestrin2 (other)
chain: MIVADSECRAELKDYLRFAPGGVGDSGPGEEQRESRARRGPRGPSAFIPVEEVLREGAESLEQHLGLEALMSSGRVDNLAVVMGLHPDYFTSFWRLHYLLLHTDGPLASSWRHYIAIMAAARHQCSYLVGSHMAEFLQTGGDPEWLLGLHRAPEKLRKLSEINKLLAHRPWLITKEHIQALLKTGEHTWSLAELIQALVLLTHCHSLSSFVFGCGILPEGDADGSPAPQAPTPPSEQSSPPSRDPLNNSGGFESARDVEALMERMQQLQESLLRDEGTSQEEMESRFELEKSESLLVTPSADILEPSPHPDMLCFVEDPTFGYEDFTRRGAQAPPTFRAQDYTWEDHGYSLIQRLYPEGGQLLDEKFQAAYSLTYNTIAMHSGVDTSVLRRAIWNYIHCVFGIRYDDYDYGEVNQLLERNLKVYIKTVACYPEKTTRRMYNLFWRHFRHSEKVHVNLLLLEARMQAALLYALRAITRYMT
notes: Transiently or stably expressed in HEK-293T cells; also called FLAG-tagged wild-type Sestrin2; wild-type Sestrin2; not shown: FLAG tag
B4: endogenous Sestrin2 (other)
chain: B3 chain
notes: Endogenous protein of human HEK-293T cells
B5: metap2 control protein (enzyme, UniProt P50579 1-478, looked up, not shown: small tags and cut ends)
chain: MAGVEEVAASGSHLNGDLDPDDREEGAASTAEEAAKKKRRKKKKSKGPSAAGEQEPDKESGASVDEVARQLERSALEDKERDEDDEDGDGDGDGATGKKKKKKKKKRGPKVQTDPPSVPICDLYPNGVFPKGQECEYPPTQDGRTAAWRTTSEEKKALDQASEEIWNDFREAAEAHRQVRKYVMSWIKPGMTMIEICEKLEDCSRKLIKENGLNAGLAFPTGCSLNNCAAHYTPNAGDTTVLQYDDICKIDFGTHISGRIIDCAFTVTFNPKYDTLLKAVKDATNTGIKCAGIDVRLCDVGEAIQEVMESYEVEIDGKTYQVKPIRNLNGHSIGQYRIHAGKTVPIVKGGEATRMEEGEVYAIETFGSTGKGVVHDDMECSHYMKNFDVGHVPIRLPRTKHLLNVINENFGTLAFCRRWLDRLGESKYLMALKNLCDLGIVDPYPPLCDIKGSYTAQFEHTILLRPTCKEVVSRGDDY
notes: Control protein; also called FLAG-Metap2; FLAG-metap2

How the values were obtained:
[1] = molecular target: T1, GATOR1, recombinant (HA-Depdc5, HA-Npr13, HA-Npr12) (UniProt O75140 1-1603; Q8WTW4 1-380; Q12980 1-569, limits assumed); assay: anti-FLAG co-immunoprecipitation, transient co-expression in HEK-293T, immunoblot (FIG. 1B)
T1 construct: also called GATOR1 multi-protein complex; not shown: HA tag
T1 sequence (O75140 whole entry, chain 1 of 3): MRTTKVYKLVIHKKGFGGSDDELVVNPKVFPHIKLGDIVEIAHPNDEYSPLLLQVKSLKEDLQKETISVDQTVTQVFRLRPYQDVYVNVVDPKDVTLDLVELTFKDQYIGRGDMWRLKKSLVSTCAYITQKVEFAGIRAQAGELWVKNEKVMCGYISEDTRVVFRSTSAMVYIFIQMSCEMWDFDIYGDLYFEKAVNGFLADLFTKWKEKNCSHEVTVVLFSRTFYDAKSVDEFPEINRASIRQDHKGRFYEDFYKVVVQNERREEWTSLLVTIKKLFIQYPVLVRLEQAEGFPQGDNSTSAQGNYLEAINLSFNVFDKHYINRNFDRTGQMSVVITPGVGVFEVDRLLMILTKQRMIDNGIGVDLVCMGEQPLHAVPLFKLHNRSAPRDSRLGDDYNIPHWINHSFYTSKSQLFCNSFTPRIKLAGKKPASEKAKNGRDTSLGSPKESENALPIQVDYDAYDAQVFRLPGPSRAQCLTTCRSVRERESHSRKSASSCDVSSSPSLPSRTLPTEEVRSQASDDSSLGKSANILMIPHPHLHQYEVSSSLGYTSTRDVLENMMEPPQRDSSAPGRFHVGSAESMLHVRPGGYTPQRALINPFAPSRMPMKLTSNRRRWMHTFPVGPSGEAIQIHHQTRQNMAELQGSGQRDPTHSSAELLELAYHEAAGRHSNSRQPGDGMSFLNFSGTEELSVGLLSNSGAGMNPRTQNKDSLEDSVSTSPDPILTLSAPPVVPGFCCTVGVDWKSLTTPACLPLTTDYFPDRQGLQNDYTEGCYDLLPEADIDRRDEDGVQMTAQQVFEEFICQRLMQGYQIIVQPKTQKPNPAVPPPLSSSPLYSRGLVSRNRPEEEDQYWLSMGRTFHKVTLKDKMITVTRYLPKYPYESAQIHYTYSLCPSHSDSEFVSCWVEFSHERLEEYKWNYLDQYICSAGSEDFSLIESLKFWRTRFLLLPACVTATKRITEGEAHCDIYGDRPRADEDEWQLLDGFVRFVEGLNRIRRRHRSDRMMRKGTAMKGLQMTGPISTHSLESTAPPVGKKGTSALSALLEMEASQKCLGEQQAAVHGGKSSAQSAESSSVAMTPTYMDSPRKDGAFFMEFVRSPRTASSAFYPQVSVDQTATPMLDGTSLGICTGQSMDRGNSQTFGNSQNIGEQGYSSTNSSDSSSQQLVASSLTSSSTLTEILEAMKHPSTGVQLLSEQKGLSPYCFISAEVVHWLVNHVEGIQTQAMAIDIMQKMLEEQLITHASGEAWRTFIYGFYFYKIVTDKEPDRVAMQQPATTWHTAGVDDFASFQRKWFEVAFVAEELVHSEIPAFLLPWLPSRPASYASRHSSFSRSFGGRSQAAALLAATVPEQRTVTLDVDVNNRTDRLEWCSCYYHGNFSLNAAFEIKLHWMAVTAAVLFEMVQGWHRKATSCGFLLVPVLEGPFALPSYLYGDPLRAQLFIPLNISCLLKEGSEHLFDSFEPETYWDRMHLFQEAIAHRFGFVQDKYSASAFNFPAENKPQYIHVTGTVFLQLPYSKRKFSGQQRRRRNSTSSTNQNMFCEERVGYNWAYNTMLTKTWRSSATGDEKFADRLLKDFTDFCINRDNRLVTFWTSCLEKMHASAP
T1 sequence (Q8WTW4 whole entry, chain 2 of 3): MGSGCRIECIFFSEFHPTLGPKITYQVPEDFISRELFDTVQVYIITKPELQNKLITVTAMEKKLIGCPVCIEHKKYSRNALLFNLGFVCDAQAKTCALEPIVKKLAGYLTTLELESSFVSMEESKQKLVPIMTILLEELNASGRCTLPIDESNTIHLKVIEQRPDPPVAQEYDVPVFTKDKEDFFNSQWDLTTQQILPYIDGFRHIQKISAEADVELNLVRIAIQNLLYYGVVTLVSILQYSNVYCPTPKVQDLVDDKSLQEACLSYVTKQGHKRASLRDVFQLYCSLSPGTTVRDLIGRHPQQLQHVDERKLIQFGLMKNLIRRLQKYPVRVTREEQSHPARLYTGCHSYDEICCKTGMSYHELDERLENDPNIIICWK
T1 sequence (Q12980 whole entry, chain 3 of 3): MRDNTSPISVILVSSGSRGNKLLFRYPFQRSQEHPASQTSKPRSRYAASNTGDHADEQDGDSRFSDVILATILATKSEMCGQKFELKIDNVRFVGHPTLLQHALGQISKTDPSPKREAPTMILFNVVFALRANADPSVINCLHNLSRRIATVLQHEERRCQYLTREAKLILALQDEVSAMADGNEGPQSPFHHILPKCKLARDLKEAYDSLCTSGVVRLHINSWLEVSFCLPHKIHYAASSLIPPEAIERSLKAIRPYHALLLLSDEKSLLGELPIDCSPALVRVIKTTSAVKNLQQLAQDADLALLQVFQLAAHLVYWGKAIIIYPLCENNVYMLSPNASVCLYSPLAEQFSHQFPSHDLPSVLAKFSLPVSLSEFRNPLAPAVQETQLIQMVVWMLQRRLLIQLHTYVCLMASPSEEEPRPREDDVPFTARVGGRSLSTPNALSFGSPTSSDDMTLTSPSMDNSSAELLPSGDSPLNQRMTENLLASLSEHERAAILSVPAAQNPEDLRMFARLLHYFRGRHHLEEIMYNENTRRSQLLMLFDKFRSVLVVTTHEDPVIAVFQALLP
Procedure: (§1) Two million HEK-293T cells were plated in 10 cm culture dishes and grown. Twenty-four hours later, cells were transfected via the polyethylenimine method (Boussif et al., 1995) with one or more of the pRK5-based cDNA expression plasmids in the following amounts: 300 ng FLAG-Metap2, 100 ng FLAG-WDR24, 50 ng FLAG-Sestrin1, 25 ng FLAG-Sestrin2, 200 ng FLAG-Sestrin3, 2 ng of FLAG-S6K1, or 200 ng each of HA-Mios, HA-WDR59, HA-WDR24, HA-Sec13, HA-Seh1L, HA-Depdc5, HA-Npr13, or HA-Npr12. The total amount of plasmid DNA in each transfection was normalized to 5 μg with empty pRK5.
(§2) The beads were washed 3 times with lysis buffer containing 500 mM NaCl. In the case of transient cotransfection assays to explore the interaction of the Sestrins with GATOR2, beads were incubated in the final salt wash for 30 minutes to reduce non-specific binding.

[2] = molecular target: B5; assay: as above
Procedure: as §1, §2

[3] = molecular target: T2, FLAG-DEPDCS, a GATOR1 component (UniProt O75140 1-1603, limits assumed); assay: anti-FLAG co-immunoprecipitation from stably expressing HEK-293T, immunoblot (FIG. 5A)
T2 construct: also called FLAG-DEPDC5; not shown: FLAG tag
T2 sequence (O75140 whole entry): as the sequence (O75140 whole entry, chain 1 of 3) above

[4] = molecular target: B3; assay: anti-FLAG co-immunoprecipitation, transient co-expression in HEK-293T, immunoblot (FIG. 1B)
Procedure: as §1, §2

[5] = molecular target: B1; assay: as above
Procedure: as §1, §2

Binder: B1
- binding result [1]: no binding

Binder: B2
- binding result [2]: no binding
- binding result [1]: no binding

Binder: B3
- binding result [1]: no binding

Binder: B4
- binding result [3]: no binding

Binder: B5
- binding result [4]: no binding
- binding result [5]: no binding
